The text below walks through data of US20210388110A1 (published 2021).

This assay addresses T1, soluble human CD3ε chain (human, UniProt P07766 23-126, limits assumed).
T1 construct: also called human CD3 epsilon chain
Description: SPR (Biacore), soluble human CD3ε chain.

T1 sequence (P07766 23-126 limits assumed): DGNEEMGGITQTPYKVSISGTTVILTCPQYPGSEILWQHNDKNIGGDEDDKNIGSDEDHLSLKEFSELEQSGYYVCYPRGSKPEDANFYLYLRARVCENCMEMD

B1: TR01H015-E22Hh/none-Hi-Kn010G3/TR01L002-k0 (antibody, human IgG1, kappa, L234A L235A, N297A)
heavy: QVQLVESGGGLVQPGRSLRLSCAASGFTFSNAWMHWVRQAPGKGLEWVAQIKGKSNNYATYYAESVKGRFTISRADSKNSIYLQMNSLKTEDTAVYYCRYVHYSASYGVDIWGQGTTVTVSSASTKGPSVFPLAPSSKSTSGGTAALGCLVKDYFPEPVTVSWNSGALTSGVHTFPAVLQSSGLYSLSSVVTVPSSSLGTQTYICNVNHKPSNTKVDKKVEPKSCDKTHTCPPCPAPEAAGGPSVFLFPPKPKDTLMISRTPEVTCVVVDVSHEDPEVKFNWYVDGVEVHNAKTKPREEQYASTYRVVSVLTVLHQDWLNGKEYKCKVSNKALPAPIEKTISKAKGQPREPQVYTLPPSRCELTKNQVSLSCAVKGFYPSDIAVEWESNGQPENNYKTTPPVLDSDGSFFLVSKLTVDKSRWQQGNVFSCSVMHEALHNHYTQKSLSLSPDYKDDDDK
chain: EPKSSDKTHTCPPCPAPELLGGPSVFLFPPKPKDTLMISRTPEVTCVVVDVSHEDPEVKFNWYVDGVEVHNAKTKPREEQYNSTYRVVSVLTVLHQDWLNGKEYKCKVSNKALPAPIEKTISKAKGQPREPQVCTLPPSRDELTKNQVSLWCLVKGFYPSDIAVEWESNGQPENNYKTTPPVLDSDGSFFLYSKLTVDKSRWQQGNVFSCSVMHEALHNRYTQKSLSLSP
light: DIVMTQSPLSLPVTPGEPASISCRSSQSLVHSNRNTYLHWYLQKPGQSPQLLIYKVSNRFSGVPDRFSGSGSGTDFTLKISRVEAEDVGVYYCGQGTQVPYTFGQGTKLEIKRTVAAPSVFIFPPSDEQLKSGTASVVCLLNNFYPREAKVQWKVDNALQSGNSQESVTEQDSKDSTYSLSSTLTLSKADYEKHKVYACEVTHQGLSSPVTKSFNRGEC
notes: one-arm antibody (single Fab) with Fab-less hinge-Fc chain Hi-Kn010G3
The molecule B1 displayed a Kd of 71.4 nM. In other words, the double-digit nanomolar range.

B2: TR01H022-E22Hh/none-Hi-Kn010G3/L0000-k0 (antibody, human IgG1, kappa, L234A L235A, N297A)
heavy: QVQLVESGGGLVQPGGSLRLSCAASGFTFSNAWMHWVRQAPGKGLEWVAQIKGKSQNYATYYAPSVKGRFTISRADSKNSIYLQMNSLKTEDTAVYYCRYVHYSASYGVDIWGQGTTVTVSSASTKGPSVFPLAPSSKSTSGGTAALGCLVKDYFPEPVTVSWNSGALTSGVHTFPAVLQSSGLYSLSSVVTVPSSSLGTQTYICNVNHKPSNTKVDKKVEPKSCDKTHTCPPCPAPEAAGGPSVFLFPPKPKDTLMISRTPEVTCVVVDVSHEDPEVKFNWYVDGVEVHNAKTKPREEQYASTYRVVSVLTVLHQDWLNGKEYKCKVSNKALPAPIEKTISKAKGQPREPQVYTLPPSRCELTKNQVSLSCAVKGFYPSDIAVEWESNGQPENNYKTTPPVLDSDGSFFLVSKLTVDKSRWQQGNVFSCSVMHEALHNHYTQKSLSLSPDYKDDDDK
chain: EPKSSDKTHTCPPCPAPELLGGPSVFLFPPKPKDTLMISRTPEVTCVVVDVSHEDPEVKFNWYVDGVEVHNAKTKPREEQYNSTYRVVSVLTVLHQDWLNGKEYKCKVSNKALPAPIEKTISKAKGQPREPQVCTLPPSRDELTKNQVSLWCLVKGFYPSDIAVEWESNGQPENNYKTTPPVLDSDGSFFLYSKLTVDKSRWQQGNVFSCSVMHEALHNRYTQKSLSLSP
light: DIVMTQSPLSLPVTPGEPASISCRSSQSLVHSNRNTYLHWYQQKPGQAPRLLIYKVSNRFSGVPDRFSGSGSGTDFTLKISRVEAEDVGVYYCGQGTQVPYTFGQGTKLEIKRTVAAPSVFIFPPSDEQLKSGTASVVCLLNNFYPREAKVQWKVDNALQSGNSQESVTEQDSKDSTYSLSSTLTLSKADYEKHKVYACEVTHQGLSSPVTKSFNRGEC
notes: as for B1
The molecule B2 yielded a Kd of 75.8 nM.

B3: TR01H021-E22Hh/none-Hi-Kn010G3/L0000-k0 (antibody, human IgG1, kappa, L234A L235A, N297A)
heavy: QVQLVESGGGLVQPGRSLRLSCAASGFTFSNAWMHWVRQAPGKGLEWVAQIKGKSNNYATYYAESVKGRFTISRADSKNSIYLQMNSLKTEDTAVYYCRYVHYSASYGVDAWGQGTTVTVSSASTKGPSVFPLAPSSKSTSGGTAALGCLVKDYFPEPVTVSWNSGALTSGVHTFPAVLQSSGLYSLSSVVTVPSSSLGTQTYICNVNHKPSNTKVDKKVEPKSCDKTHTCPPCPAPEAAGGPSVFLFPPKPKDTLMISRTPEVTCVVVDVSHEDPEVKFNWYVDGVEVHNAKTKPREEQYASTYRVVSVLTVLHQDWLNGKEYKCKVSNKALPAPIEKTISKAKGQPREPQVYTLPPSRCELTKNQVSLSCAVKGFYPSDIAVEWESNGQPENNYKTTPPVLDSDGSFFLVSKLTVDKSRWQQGNVFSCSVMHEALHNHYTQKSLSLSPDYKDDDDK
chain: EPKSSDKTHTCPPCPAPELLGGPSVFLFPPKPKDTLMISRTPEVTCVVVDVSHEDPEVKFNWYVDGVEVHNAKTKPREEQYNSTYRVVSVLTVLHQDWLNGKEYKCKVSNKALPAPIEKTISKAKGQPREPQVCTLPPSRDELTKNQVSLWCLVKGFYPSDIAVEWESNGQPENNYKTTPPVLDSDGSFFLYSKLTVDKSRWQQGNVFSCSVMHEALHNRYTQKSLSLSP
light: DIVMTQSPLSLPVTPGEPASISCRSSQSLVHSNRNTYLHWYQQKPGQAPRLLIYKVSNRFSGVPDRFSGSGSGTDFTLKISRVEAEDVGVYYCGQGTQVPYTFGQGTKLEIKRTVAAPSVFIFPPSDEQLKSGTASVVCLLNNFYPREAKVQWKVDNALQSGNSQESVTEQDSKDSTYSLSSTLTLSKADYEKHKVYACEVTHQGLSSPVTKSFNRGEC
notes: as for B1
In turn, B3 yielded a Kd of 80.5 nM. This Kd and that of the molecule before are within 1.5-fold of each other.

B4: TR01H015-E22Hh/none-Hi-Kn010G3/TR01L004-k0 (antibody, human IgG1, kappa, L234A L235A, N297A)
heavy: QVQLVESGGGLVQPGRSLRLSCAASGFTFSNAWMHWVRQAPGKGLEWVAQIKGKSNNYATYYAESVKGRFTISRADSKNSIYLQMNSLKTEDTAVYYCRYVHYSASYGVDIWGQGTTVTVSSASTKGPSVFPLAPSSKSTSGGTAALGCLVKDYFPEPVTVSWNSGALTSGVHTFPAVLQSSGLYSLSSVVTVPSSSLGTQTYICNVNHKPSNTKVDKKVEPKSCDKTHTCPPCPAPEAAGGPSVFLFPPKPKDTLMISRTPEVTCVVVDVSHEDPEVKFNWYVDGVEVHNAKTKPREEQYASTYRVVSVLTVLHQDWLNGKEYKCKVSNKALPAPIEKTISKAKGQPREPQVYTLPPSRCELTKNQVSLSCAVKGFYPSDIAVEWESNGQPENNYKTTPPVLDSDGSFFLVSKLTVDKSRWQQGNVFSCSVMHEALHNHYTQKSLSLSPDYKDDDDK
chain: EPKSSDKTHTCPPCPAPELLGGPSVFLFPPKPKDTLMISRTPEVTCVVVDVSHEDPEVKFNWYVDGVEVHNAKTKPREEQYNSTYRVVSVLTVLHQDWLNGKEYKCKVSNKALPAPIEKTISKAKGQPREPQVCTLPPSRDELTKNQVSLWCLVKGFYPSDIAVEWESNGQPENNYKTTPPVLDSDGSFFLYSKLTVDKSRWQQGNVFSCSVMHEALHNRYTQKSLSLSP
light: DIVMTQSPLSLPVTPGEPASISCQASESLVHSNRNTYLHWYQQKPGQAPRLLIYKVSNRFSGVPDRFSGSGSGTDFTLKISRVEAEDVGVYYCGQGTQVPYTFGQGTKVEIERTVAAPSVFIFPPSDEQLKSGTASVVCLLNNFYPREAKVQWKVDNALQSGNSQESVTEQDSKDSTYSLSSTLTLSKADYEKHKVYACEVTHQGLSSPVTKSFNRGEC
notes: as for B1
In turn, B4 registered a Kd of 73.4 nM.
